Our source for the activity values is patent publication US8647863.

This data set has as its system ParA resolvase. As to the kind of experiment: cell_activity. To be noted: complete recombination of pHCNparA and pSIPHCNparA into minicircle and miniplasmid 30 min after arabinose induction in E. coli; about 50% when resolvase was ….

For the substance “ParA resolution sites res1/res2 (in plasmids pHCNparA, pSIPHCNparA, pSIPresHCN)”, the activity is 100%.
